Numbering of substitutions follows the chain as printed.
B1: Antibody 1 (fully human antibody) (antibody, V domains shown)
VH: QVQLVQSGAEVKKPGSSVKVSCKASGGTFSSYVISWVRQAPGQGLEWVGRIIPIFGTVKYAQKFQGRVTITADKSTSTAYMELSSLRSEDTAVYYCARDLPGDSRDGYNYDAFDIWGQGTLVTVSL
VL: GELELTQPPSVSAAPGQKVTISCSGSSSNIGNNYVSWYQQLPGTAPKLLIYDNNKRPSGIPDRFSGSKSGTSATLGITGLQTGDEADYYCGTWDSSLNAGVFGGGTELTVLG
B2: Antibody 2 (fully human antibody) (antibody, V domains shown)
VH: B1 VH with Q1E, V33A, V48M, T57I, V58A, L121M, L126S
VL: GELVLTQPPSVSAAPGQKVTISCSGSSSNIGNNFVSWYQQLPGTAPKLLIYDNDKRPSGIPDRFSGSKSGTSATLGITGLQTGDEADYYCATWDRSLSVELFGGGTKVTVLG
B3: Antibody 5 (fully human antibody) (antibody, V domains shown)
VH: EVQLVQSGAEVKKPGSSVKVSCKASGGTFSSYAISWVRQAPGQGLEWMGRIIPIFGIAKYAQKFQGRVTITADRSTSTAYMELSSLRSEDTAVYYCVTRSGDYSGSSGLAFDIWGQGTMVTVSS
VL: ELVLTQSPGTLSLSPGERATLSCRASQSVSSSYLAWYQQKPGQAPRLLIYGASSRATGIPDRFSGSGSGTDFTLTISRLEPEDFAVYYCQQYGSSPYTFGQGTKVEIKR
B4: Antibody 3 (fully human antibody) (antibody, V domains shown)
VH: QVQLQESGPGLVKPSETLSLTCTVSGGSINSRSYYWGWIRQPPGKGLEWIGSIYYSGSTYYNPSLKSRVTISVDTSKNQFSLKLRSVTAADTAVYYCARADREHVWGSYDGPGSPFDYWGQGTLVTVSS
VL: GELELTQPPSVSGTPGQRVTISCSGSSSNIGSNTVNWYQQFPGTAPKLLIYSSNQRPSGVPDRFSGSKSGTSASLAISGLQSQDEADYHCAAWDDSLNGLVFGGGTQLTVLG
B5: Antibody 4 (fully human antibody) (antibody, V domains shown)
VH: B4 VH with H104Y
VL: GELVLTQPPSVSEAPRQRVTISCSGSSSNIGNNAVNWYLQVPGTAPKLLIYGDHQRPSGVPDRFSGSKSGTSASLSISGLQSEDEADYYCAAWDDSLNGVVFGGGTKLTVLG

Each binder was assayed against S protein of Korean isolate virus (MERS-CoV/Korea/KNIH/002_05_2015) (MERS-CoV, Korean isolate …) (assay: cell-based or functional assay).

Binder | IC50, PRNT, Korean isolate virus, First experiment | IC50, PRNT, Korean isolate virus, Second experiment
B1 | 0.0004 µg/mL | 
B2 | 0.0009 µg/mL | 
B3 |  | 0.00025 µg/mL
B4 |  | 0.0032 µg/mL
B5 |  | 0.00165 µg/mL

Each binder was assayed against S protein of Saudi isolate virus (MERS/HCoV/KSA/EMC/2012) (MERS-CoV, Saudi isolate …) (assay: cell-based or functional assay).

Binder | Neutralizing activity against Saudi virus (MERS-CoV_KSA/EMC/2012) IC50
B1 | 0.44 µg/mL
B2 | 0.09 µg/mL
B3 | 0.06 µg/mL
B4 | 0.13 µg/mL
B5 | 0.06 µg/mL

The binders below were run against S protein of Jordan isolate virus (MERS-HCoV/Jordan/01) (MERS-CoV, Jordan isolate …) (assay: cell-based or functional assay).

Binder | Neutralizing activity against Jordan virus (MERS-HCoV/Jordan/01) IC50
B1 | 0.11 µg/mL
B2 | 0.06 µg/mL
B3 | 0.09 µg/mL
B4 | 0.11 µg/mL
B5 | 0.05 µg/mL

Reference: patent US20220177552A1 (CELLTRION, published 2022)
